From patent publication US8834920B2, “Liposome composition for targeting egfr receptor” (Alza Corporation, priority 2006, dated 2014)
Each block holds one molecule with its values, some of them ahead of it.

Tests used:
[1] = molecular target: T1, sEGFR-His6 (Homo sapiens, UniProt P00533); assay: Phage ELISA on coated sEGFR-His6; type: binding; conditions: P190 phage, construct sEGFR-His6
T1 construct: made in house; host or cells: HEK293E (transient, secreted)
Protocol: (§1) The plates were held overnight at room temperature, washed twice with TBST (0.5M Tris Base, 9% NaCl, 0.05% tween, pH 7.6), and loaded with 200 μL per well of Starting Block (Pierce). […] The plates were held at room temperature for 1.5 hours for blocking. Plates were then washed twice with TBST and phage were added. The phage solutions were crude phage supernatant from overnight cultures diluted four-fold with Starting Block. After a one-hour incubation, the plates were washed thrice with TBST and 100 μL of a 1:5000 dilution of phage binding antibody conjugate (α-M13-HRP) was added to the wells. EGF was added if applicable. After a one-hour incubation the plates were washed five times with TBST, 100 μL of POD (BM Chemiluminescence ELISA substrate; Roche Applied Science) was added, and chemiluminescene recorded.

[2] = molecular target: Control-MMB (Homo sapiens, UniProt P01857); assay: Phage ELISA on Control-MMB; type: binding
Protocol: (§2) The protein solution was removed and wells were rinsed twice with Tris-Buffered Saline containing 0.05% Tween-20 (TBS-T) using a plate washer (Embla). The wells were blocked with Starting Block in TBS for 1 hr at room temperature and rinsed twice with TBS-T. An equal volume of phage supernatant and Starting Block in TBS were incubated in the wells for 1 hr at room temperature, and the wells were rinsed five times with TBS-T. Anti-M13/horseradish peroxidase conjugate (Amersham), diluted 1:5000 in Starting Block in TBS, was added into the wells and incubated for 1 hour at room temperature, and then the wells were rinsed five times with TBS-T. Finally, chemiluminescent peroxidase substrate (Roche) was added to the wells, and chemiluminescence was measured on a Tecan plate reader.
The plates were held overnight at room temperature, washed twice with TBST (0.5M Tris Base, 9% NaCl, 0.05% tween, pH 7.6), and loaded with 200 μL per well of Starting Block (Pierce). […] The plates were held at room temperature for 1.5 hours for blocking. Plates were then washed twice with TBST and phage were added. […] After a one-hour incubation the plates were washed five times with TBST, 100 μL of POD (BM Chemiluminescence ELISA substrate; Roche Applied Science) was added, and chemiluminescene recorded.

[3] = molecular target: T2, EGF + sEGFR-MMB Complex (Homo sapiens, UniProt P00533); assay: Phage ELISA on complex of EGF and sEGFR-MMB; type: binding
T2 construct: made in house
Protocol: as §1

[4] = tested on: A431 cells; assay: Flow cytometry (FACS) of phage binding to A431 cells; type: cell-based, human
Protocol: (§3) To evaluate whether the selected peptides from phage display can bind to tumor cells that overexpress EGFR, A431 cells (epidermoid cancer) or an EGFR negative tumor cells, MCF-7 (breast carcinoma) were tested in a flow cytometry assay using fluorescence detection (FACS). For P145, PP146 and their control phage, 2.5×10^5 A431 cells were resuspended in 25 μl of flow staining buffer (dPBS with 1% BSA, 0.09% sodium azide) and incubated with 25 μl of phage clones for 1 hour at 4° C.
(§4) A431 cells (epidermoid cancer) which overexpress EGFR and EGFR-negative tumor cells, MCF-7 (breast carcinoma) were tested in a flow cytometry assay. Tumor cells (A431 and MCF-7) were harvested with 0.25% tyrpsin-EDTA and washed twice with FACS staining buffer (dPBS with 1% BSA, 0.09% sodium azide). […] After binding at 4° C., cells were washed twice with FACS staining buffer to remove unbound phage and then incubated with 0.5 μg of mouse anti-M13 monoclonal antibody conjugated to FITC (Fitzgerald Industries International, Inc. Concord, Mass.) for 1 hour at 4° C. Mouse anti-M13-FITC incubated with cells without phage was used as background binding. Cells were washed twice with FACS staining buffer to remove unbound detection antibody.

[5] = tested on: MCF-7; assay: Flow cytometry (FACS) of phage binding to MCF-7 cells; type: cell-based, human; conditions: EGFR overexpressing vs EGFR negative cells
Protocol: as §3, §4

[6] = molecular target: T3, sEGFR-MMB (Homo sapiens, UniProt P00533); assay: Phage ELISA on coated sEGFR-MMB; type: binding; conditions: P190 phage, construct SEGFR-MMB
T3 construct: made in house; host or cells: HEK 293E
Protocol: as §2
Phage were amplified in XL-1 Blue host cells and purified by precipitation with 6% polyethylene glycol-8000/0.5 M sodium chloride. The precipitated phage were resuspended in phosphate-buffered saline in a volume that was 1/100th the original culture volume. For competitive ELISA experiments, plates were prepared by coating wells with sEGFR-MMB or the Control-MMB followed by blocking as described above. […] The binding reaction was incubated for 1 hr at room temperature, and then bound phage were detected with anti-M13/HRP as above. […] Bound phage were washed and detected with anti-M13/HRP as described above. […]

[7] = tested on: EGFR; assay: FACE (Fast Activated Cell-based ELISA) of EGFR phosphorylation
[8] = tested on: A431 cells; assay: FACS of P190-MMB constructs or cetuximab on A431 cells; type: cell-based, human
[9] = molecular target: T3, sEGFR-MMB; assay: P190-MMB constructs, solid phase binding (BIAcore, ELISA) to immobilized sEGFR-MMB
Text: In contrast, 190-MMB as the 4316 construct, binds EGFR and the presence of excess EGF promotes its binding.

Molecule: DPCTWEVWGRECLQ [Peptide P190]
Relative Signal [1]: 6
binding to Control-MMB [2]: fails to bind
Relative Signal ([3]; P190 phage, construct SEGFR-MMB + EGF): 29408 ± 259
binding to dimeric EGFR in the presence of EGF or TGF-a ([3]; phage ELISA): increased
binding to A431 cells in the presence of EGF [4]: increased
binding to A431 cells in the presence of EGF and cetuximab [4]: decreases
binding to A431 tumor cells ([4]; anti-phage-FITC, 4° C.): bind
binding to A431 compared to MCF-7 [5]: bound more effectively to A431 cells
Relative Signal [6]: 3937 ± 335

Molecule: VLCHRYYHPICYT [Peptide P145]
binding to A431 relative to positive control phage displaying EGF [4]: weaker
binding to A431 compared to MCF-7 [5]: greater binding to A431 than MCF-7 cells

Molecule: SGCLDALWQCVY (Random peptide) [Peptide P174]
binding to A431 relative to positive control phage displaying EGF [4]: comparable
binding to A431 compared to MCF-7 [5]: greater to A431 than to MCF-7

Molecule: TLCRSFFHPLCYA (Random peptide) [Peptide P146]
binding to A431 relative to positive control phage displaying EGF [4]: weaker

Molecule: KTCVSTTFDLWFVCFA (Random peptide) [Peptide P176]
binding to A431 relative to positive control phage displaying EGF [4]: comparable

binding rank among linker variants ([9]; ELISA and FACS): best binder
B1: 4316: P190-MMB construct with the longest linker, Flex GGGGS, n 4 (protein)
chain: GGDPCTWEVWGRECLQGGGGSGGGGSGGGGSGGGGSCPPCPAPEAAGGPSVFLFPPKPKDTLMISRTPEVTCVVVDVSQEDPEVQFNWYVDGVEVHNAKTKPREEQFNSTYRVVSVLTVLHQDWLNGKEYKCKVSNKGLPSSIEKTISKAKGQPREPQVYTLPPSQEEMTKNQVSLTCLVKGFYPSDIAVEWESNGQPENNYKTTPPVLDSDGSFFLYSRLTVDKSRWQEGNVFSCSVMHEALHNHYTQKSLSLSLGK
interference with EGF activation of EGFR [7]: nor interfere with EGF activation of EGFR
EGFR phosphorylation (receptor activation) ([7]; absence of EGF): did not induce EGFR phosphorylation
effect of EGF on binding to A431 ([8]; excess rhEGF): enhanced binding
on-rate [9]: much more pronounced on-rate than the other constructs

B2: 4315: P190-MMB construct, Flex GGGGS, n 2 (protein)
chain: GGDPCTWEVWGRECLQGGGGSGGGGSCPPCPAPEAAGGPSVFLFPPKPKDTLMISRTPEVTCVVVDVSQEDPEVQFNWYVDGVEVHNAKTKPREEQFNSTYRVVSVLTVLHQDWLNGKEYKCKVSNKGLPSSIEKTISKAKGQPREPQVYTLPPSQEEMTKNQVSLTCLVKGFYPSDIAVEWESNGQPENNYKTTPPVLDSDGSFFLYSRLTVDKSRWQEGNVFSCSVMHEALHNHYTQKSLSLSLGK
binding to A431 [8]: little binding
